Results: article PMC2794166

Biological target: T1, mPOT1a_N (mouse, UniProt Q91WC1 1-300)
T1 sequence: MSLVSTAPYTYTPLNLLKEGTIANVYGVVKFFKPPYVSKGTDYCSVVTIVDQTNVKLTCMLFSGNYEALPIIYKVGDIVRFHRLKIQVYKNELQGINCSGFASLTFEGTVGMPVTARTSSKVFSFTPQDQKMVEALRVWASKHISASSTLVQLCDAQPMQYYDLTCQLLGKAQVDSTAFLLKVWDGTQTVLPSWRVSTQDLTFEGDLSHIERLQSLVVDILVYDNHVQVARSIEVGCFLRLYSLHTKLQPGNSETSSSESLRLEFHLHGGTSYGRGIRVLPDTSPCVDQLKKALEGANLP
Assay: EMSA

Binder: TTAGGGTTAGGG (ssDNA) [(TTAGGG)2]
- binding result: no binding
